Kd and binding signal data for six molecules are collected here from US6426335, “Vascular endothelial growth factor (VEGF) nucleic acid ligand complexes” (Gilead Sciences, Inc.).

Data set [1] concerns the target T1, VEGF165 (Homo sapiens, UniProt P15692-4 P15692-4:27-191). In words: filter; 37C. The following applies: tags: R&D Systems carrier-free, expressed in Sf21 insect cells; chain copies: homodimer (inferred). The method, then:
(§1) Nucleic Acid Ligands radiolabeled during transcription by incorporation of α-[^32P]-labeled NTPs, or after synthesis using γ-[^32P]-ATP and T4 polynucleotide kinase, were incubated in low concentration (between 20 and 71 pM) with varying concentrations of VEGF or other growth factors at 37° C. for 15 minutes. Incubations were in TBS, PBS, or HEPES-buffered saline (HBS), pH 7.4, with or without the addition of supplemental divalent cations. Samples were passed through prewashed 0.45μ Type HA filters (Millipore) followed by a 5–10 ml wash with binding buffer. Filters were immersed in scintillant and counted to quantitate the amount of protein-bound RNA retained by each filter. The equilibrium dissociation constant (K_D) of Nucleic Acid Ligand binding to a specific protein was calculated from the data points as described in Green et al. (1996) Biochem. 35:14413–14424.

Data set [2] concerns the target T1, VEGF165. In words: filter; 37C; Ca2+ dependent. The following applies: tags: R&D Systems carrier-free, expressed in Sf21 insect cells; chain copies: homodimer (inferred). The method, then:
as §1

Data set [3] concerns the target T1, VEGF165. In words: EMSA; competition EMSA; apparent affinity; VEGF isoform not stated. As to conditions: tags: R&D Systems carrier-free, expressed in Sf21 insect cells; chain copies: homodimer (inferred). As to the method: The binding affinities of the unmodified Nucleic Acid Ligand (NX213, open circle), its dialkyl glycerol modified analog (NX278, open diamond) and liposomal NX278 (NX278-L, open square), along with the sequence scrambled (sc) controls (scNX213, closed circle; scNX278, closed diamond; and scNX278-L, closed square) were determined by a competition electrophoreticmobility shift assay. NX213 is 5'-TsTsTsTs mAaCaC aCaUrG rAaUmG rGaUmA mGrAaC mGaCaC mGmGmG mGaUmG TsTsTsTsT-3' and scNX213 is (SEQ ID NO:1) 5'-TsTsTsTs mGaUaC mGmGaU mAaCrG mGrAmG aUmGrG rAaCnC mGaUaC mAaCmG TsTsTsTsT-3' (SEQ ID NO:4) ^32P 5=end-labeled NX-213 (1.5 nM) was incubated in binding buffer (phosphate buffered saline with 0.01% human serum albumin) at 37° C. for 20 min in the presence of VEGF (0.33 nM) and competitor oligonucleotide(5 pM-0.33 µM). The ^32p NX-213/VEGF complex was resolved from the free ^32p NX-213 by electrophoresison 8% polyacrylamide gel (19:1 acrylamide:bisacrylamide, Tris-borate, 89 mM, 1 mM EDTA as the running buffer). The intensity of the band corresponding to ^32P NX-213/VEGF complex at varying competitor concentrations was quantitated by phosphorimager analysis. Data normalized for the amount of complex formed in the absence of competitor were fitted by the least squares method to the competition binding equation. […]

Data set [4] addresses T1, VEGF165. In words: described previously, quoted for comparison. As to conditions: tags: R&D Systems carrier-free, expressed in Sf21 insect cells; chain copies: homodimer (inferred); label: 32P 5' end.

T1 sequence (P15692 other isoform, or with tags, fused parts or gaps): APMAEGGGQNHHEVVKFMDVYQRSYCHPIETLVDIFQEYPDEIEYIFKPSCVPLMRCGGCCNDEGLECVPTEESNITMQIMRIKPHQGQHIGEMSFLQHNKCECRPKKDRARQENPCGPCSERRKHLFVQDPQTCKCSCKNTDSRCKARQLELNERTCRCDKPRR

In the data set with VEGF165 [1], GAACCGAUGGAAUUUUUGGACGCUCT (ssRNA, 2'-F pyrimidines; 3'-3' dT cap (N26) [26 (3'-3' dT cap); all C/U 2'-F]) [t2c] registered a Kd of 0.2 nM. This lies in the sub-nanomolar range. As to GAAUCAGUGAAUGCUUAUACAUCT (ssRNA, 2'-F pyrimidines; 3'-3' dT cap (N24) [24 (3'-3' dT cap); all C/U 2'-F]) [t44c], the Kd with VEGF165 [1] came to 2 nM. Compared with the last molecule, the Kd is about 10-fold higher. GCGGAAUCAGUGAAUGCUUAUACAUCCGCT (ssRNA, 2'-F pyrimidines; 3'-3' dT cap (N30) [30 (3'-3' dT cap); all C/U 2'-F]) [t44]: binding with VEGF165 [2] was characterised by a dissociation constant (Kd) of 0.01 nM. That is a picomolar value. On to TTTTACCCUGAUGGUAGACGCCGGGGUGTTTTT (mixed, as NX278, embedded in DSPC:cholesterol liposome) [NX278-Liposome], for which the binding signal with VEGF165 [3] stood at 3 fold lower than NX278.

B1: NX213 (mixed)
mixed: TTTTACCCUGAUGGUAGACGCCGGGGUGTTTTT
modifications: PS DNA T at 1-4 and 29-33; 2'-OMe at 5,13,16,17,20,23-26,28; 2'-NH2 at 6-9,12,15,19,21,22,27
In the data set with VEGF165 [4], B1 displayed a Kd of 0.14 nM. AACCGAUGGAAUUUUUGGACGCUT (ssRNA, 2'-F pyrimidines; 3'-3' dT cap (N24) [24 (3'-3' dT cap); all C/U 2'-F]) [t2d] yielded a Kd with VEGF165 [1] of 20 nM. This lies in the double-digit nanomolar range.
